Laboratory results: IntAct's records for PubMed 16301520

B1: Mitochondrial antiviral-signaling protein (Homo sapiens), Q7Z434 (parent)
chain: MPFAEDKTYKYICRNFSNFCNVDVVEILPYLPCLTARDQDRLRATCTLSGNRDTLWHLFNTLQRRPGWVEYFIAALRGCELVDLADEVASVYQSYQPRTSDRPPDPLEPPSLPAERPGPPTPAAAHSIPYNSCREKEPSYPMPVQETQAPESPGENSEQALQTLSPRAIPRNPDGGPLESSSDLAALSPLTSSGHQEQDTELGSTHTAGATSSLTPSRGPVSPSVSFQPLARSTPRASRLPGPTGSVVSTGTSFSSSSPGLASAGAAEGKQGAESDQAEPIICSSGAEAPANSLPSKVPTTLMPVNTVALKVPANPASVSTVPSKLPTSSKPPGAVPSNALTNPAPSKLPINSTRAGMVPSKVPTSMVLTKVSASTVPTDGSSRNEETPAAPTPAGATGGSSAWLDSSSENRGLGSELSKPGVLASQVDSPFSGCFEDLAISASTSLGMGPCHGPEENEYKSEGTFGIHVAENPSIQLLEGNPGPPADPDGGPRPQADRKFQEREVPCHRPSPGALWLQVAVTGVLVVTLLVVLYRRRLH

Variants of: B1
Details: with polg_hcv77 polg

Variant	effect of a mutation on the interaction
C508R	decreasing interaction
